The values that follow are results of earlier work, collected in article PMC7364852.

This data set addresses Spike RBD (SARS-CoV-2) (UniProt P0DTC2).

One may read the Kd as the equilibrium constant for the complex coming apart. Consider SBP1 (from UniProt Q9BYF1), for which the Kd is 47 nM.
